In patent US10414796:

Columns and labels:
[1] = molecular target: heterologous livipeptin fraction 2.2HET (HPLC fraction at 2.2 minutes from E. coli transformed with pALVP)
[2] = molecular target: T1, heterologous livipeptin fraction 4.4HET (HPLC fraction at 4.4 minutes from E. coli transformed with pALVP)
T1 chain: FR

[3] = molecular target: heterologous livipeptin fraction 4.2HET (HPLC fraction at 4.2 minutes from E. coli transformed with pALVP)

B1: papain (protein)
chain: IPEYVDWRQKGAVTPVKNQGSCGSCWAFSAVVTIEGIIKIRTGNLNEYSEQELLDCDRRSYGCNGGYPWSALQLVAQYGIHYRNTYPYEGVQRYCRSREKGPYAAKTDGVRQVQPYNEGALLYSIANQPVSVVLEAAGKDFQLYRGGIFVGPCGNKVDHAVAAVGYGPNYILIKNSWGTGWGENGYIRIKRGTGNSYGVCGLYTSSFYPVKN
- anti-proteolytic activity (enzymatic assay) [1]: The anti-proteolytic activity of fractions 2.2, 4.2 and 4.4HET was confirmed through the enzymatic assay described previously, resulting active against papain
- anti-proteolytic activity (enzymatic assay) [2]: The anti-proteolytic activity of fractions 2.2, 4.2 and 4.4HET was confirmed through the enzymatic assay described previously, resulting active against papain
- anti-proteolytic activity (enzymatic assay) [3]: The anti-proteolytic activity of fractions 2.2, 4.2 and 4.4HET was confirmed through the enzymatic assay described previously, resulting active against papain
